Our source for the amyloid nucleation score values is the supplement of paper PMC12042874.

A short description of the data set: amyloid nucleation score (Sup35N fusion, yeast selection) (log enrichment); library NNK2; higher = more nucleation; inactive = no reads after selection. In short, it runs like this: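 Yeast lacking psi expressed peptides of 20 random codons fused to Sup35N, received 100 μM copper sulfate for 24 hours, and were then grown for 7 days at 30°C on medium lacking adenine and uracil. Illumina sequencing of input and output plasmid inserts provided the reads. Nucleation scores are DiMSum log enrichments of output over input, centred on the mode of non-aggregating sequences. Any sequence with under 100 input reads was excluded.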

± gives the uncertainty stated by the source.

LSMVYYATFDGF gave an amyloid nucleation score of -1.01 ± 1.1.

The substance YGLIFNLASFMLRGPRTSFS registered an amyloid nucleation score of -2.15 ± 0.64.

Turning to WARFEKV, the amyloid nucleation score result is “inactive”.

In turn, YRACCVYNLGEVEWGVWVVC came in with an amyloid nucleation score of -0.31 ± 0.21.

Take KPGRYRDVIRFLSDLLECNG: the amyloid nucleation score entry was “inactive”.

FIRSIHCVKMDELAWLLSVS registered an amyloid nucleation score of 0.252 ± 0.46.

NSWASPTVVFIRPVHMLLVL had an amyloid nucleation score of 0.158 ± 0.25.

NADKVQGMRMNRDWYSWCCL gave an amyloid nucleation score of 5.323 ± 0.038.

Consider IQYGEIGHIFCKVVISLNLE, for which the amyloid nucleation score was 1.47 ± 0.2.

Substance PSCFQDYKWQMWQLTRAWNF came in with an amyloid nucleation score of -0.758 ± 0.55.

With KVALVHAGLKNFWRSSLWRL, the amyloid nucleation score came to 1.11 ± 0.41.

On to ILYGWGRMMCRPLPQGYWMV, for which the amyloid nucleation score amounted to 0.449 ± 0.28.

For the substance NSSEINHSKG, the amyloid nucleation score was -0.788 ± 1.1.

As to VLGNGYPD, the amyloid nucleation score is -0.19 ± 1.1.

For the substance LWGLYNREFNAWRGHFVQDG, the amyloid nucleation score entry was “inactive”.

Regarding CTSLLI, the amyloid nucleation score is -0.545 ± 0.48.

STESARSKRGMSSPMNSIRA yielded an amyloid nucleation score of 0.029 ± 0.32.

As for ALVLRATVVVGIVKPGHAAD, the amyloid nucleation score worked out at 0.523 ± 0.32.

As to KLAPLNKGSFA, the amyloid nucleation score was -0.211 ± 0.63.

Substance RLFQE had an amyloid nucleation score of -0.153 ± 1.1.

In the case of FLNSWQVGYLSCSSKLVACN, the amyloid nucleation score result is “inactive”.

The substance WRHSVVMYNWKIGHCVGDYW gave an amyloid nucleation score of 0.718 ± 0.18.

Regarding MGFQVYLGRGLNDFKAE, the amyloid nucleation score is 2.66 ± 0.11.

Take RRIKPIVLPTVCFYYVSITS: the amyloid nucleation score result is “inactive”.

For IAICVNARE, the amyloid nucleation score was found to be 0.838 ± 0.35.

In the case of RLMRAKCMQWVSFQ, the amyloid nucleation score is -0.034 ± 0.4.

RLCVILCQVMTWRMAVSILE displayed an amyloid nucleation score of 0.228 ± 0.56.

In turn, NGARKCFIDAHWESAVANPE gave an amyloid nucleation score of 3.2 ± 0.099.

VPELVSYFHLP: the amyloid nucleation score is 0.863 ± 0.43.

In the case of INGCFDHPTSIETFSEEMWM, the amyloid nucleation score is -0.533 ± 0.55.

Regarding EFQGVS, the amyloid nucleation score was 0.343 ± 0.64.

Consider SMVKKLQMESPAFSVGIFWV, for which the amyloid nucleation score was 7.74 ± 0.085.

SALSLICDRWFDCFLRGTQY had an amyloid nucleation score of 3.66 ± 0.15.

FCGDILSVT gave an amyloid nucleation score of 0.695 ± 0.66.

For the substance FYHYDLLYRSGVLWRNHHGP, the amyloid nucleation score came to 2.77 ± 0.1.

As to CDPWQGYRWLP, the amyloid nucleation score was -0.665 ± 0.37.

Substance NVMKSLFGRC gave an amyloid nucleation score of 0.359 ± 0.48.

Substance AFCWTLWQYLGFS gave an amyloid nucleation score of 1.35 ± 0.16.

The substance MLVLFADRRSMRDLDNTGFV registered an amyloid nucleation score of 0.029 ± 0.79.

In the case of VICRGITVARWSF, the amyloid nucleation score came out at 3.58 ± 0.065.

In the case of MKSNSLSGRCSQFHLES, the amyloid nucleation score was -0.184 ± 1.1.

Take LACIPGGKVNSPLGWHGFRD: the amyloid nucleation score amounted to 0.057 ± 1.1.

Turning to AHYIASVDWIFKM, the amyloid nucleation score is -1.32 ± 0.41.

As to ILSLRNR, the amyloid nucleation score is -0.965 ± 1.

As to ASCNKGPEKSGQLFLLSAFL, the amyloid nucleation score was -0.641 ± 0.49.

For the substance FYEHRIIFFVLGFFNATTGS, the amyloid nucleation score entry was “inactive”.

Consider SMSMYTPNFFDFVVVRPTIY, for which the amyloid nucleation score entry is “inactive”.

Turning to SFIWEYNMYYTGLGRITWMP, the amyloid nucleation score was found to be 0.922 ± 0.34.

For SVYQVRLLFGDLRANKAVVS, the amyloid nucleation score was -0.494 ± 0.56.

On to IYCNNPRWSFLHSLKLEPLG, for which the amyloid nucleation score was -0.476 ± 0.28.

Turning to WSWLSFYLSGMAFLVRYKSG, the amyloid nucleation score is -0.344 ± 0.56.

MWWFYGSILHRGDRT returned an amyloid nucleation score of 1.58 ± 0.23.

Regarding VFLYYRTILMWVVSGLL, the amyloid nucleation score was -0.449 ± 0.63.

Turning to LSRSGNAPDMKKLLNFGQTR, the amyloid nucleation score came out at 3.71 ± 0.042.

The substance YICRGASGIKSQLREWDVAH returned an amyloid nucleation score of -0.269 ± 0.74.

The substance VHVWWANVIRVMYNHVRSDW gave an amyloid nucleation score of 0.133 ± 0.34.

Turning to LSMSWC, the amyloid nucleation score came out at 1.1 ± 0.44.

As to GLGSRWRCA, the amyloid nucleation score stood at 2.01 ± 0.24.

With GSVTVCIMSRR, the amyloid nucleation score was -0.729 ± 0.64.

LFLSLKYPLSYYASTVDNLA yielded an amyloid nucleation score of 0.6 ± 0.74.

Regarding MGLYLWGFRTTSICGVLMDY, the amyloid nucleation score is -1.66 ± 0.76.

Take LFALLK: the amyloid nucleation score is -0.005 ± 0.54.

Consider VDVFPAPSHRCGLMNLCNLV, for which the amyloid nucleation score amounted to 0.969 ± 0.28.

In turn, FLGFI had an amyloid nucleation score of -1.94 ± 1.1.

Regarding TVSQFLFN, the amyloid nucleation score is -0.559 ± 0.76.

As to FSVMMLMAVLMGTKIGVTEN, the amyloid nucleation score was 4.19 ± 0.087.

Substance NDHLGVS registered an amyloid nucleation score of 3.69 ± 0.059.

In the case of NSSYTVGHGPDT, the amyloid nucleation score entry is “inactive”.

MIIVTAY registered an amyloid nucleation score of -0.073 ± 0.49.

Turning to CFMAVQI, the amyloid nucleation score entry was “inactive”.

Substance ESDMCFVWSIELVGLMFKLI displayed an amyloid nucleation score of -0.979 ± 0.24.

As to SYCILVLNL, the amyloid nucleation score was 6.445 ± 0.045.

Consider LNCENELDFKLLSQSNTTMC, for which the amyloid nucleation score came to 0.199 ± 0.62.

The substance ILKRMLRCIYNFNISVWIIR yielded an amyloid nucleation score of -0.578 ± 0.31.

In the case of SINSSV, the amyloid nucleation score was -0.166 ± 1.1.

On to VIKFFNLREQFFVIIMAYGF, for which the amyloid nucleation score result was “inactive”.

In turn, RTERSAFLLAPGNGLSRVRR yielded an amyloid nucleation score of 0.831 ± 0.4.

Consider ILICKILKTRMKVSRDMVMK, for which the amyloid nucleation score result was “inactive”.

Substance TSRYTHNCMPIDCMIMHMGI had an amyloid nucleation score of 1.77 ± 0.14.

TCLAKLLFCKSTSKDRV showed an amyloid nucleation score of 0.063 ± 1.1.

Substance RALVSRCRVCADKSPASSCD registered an amyloid nucleation score of -0.411 ± 0.45.

On to TVIRRIYFRRPGRSNMSCTN, for which the amyloid nucleation score is -0.067 ± 0.65.

As for DALQSSFTTLLLYNAIEDVY, the amyloid nucleation score is -0.317 ± 0.35.

With GDYGPSDIMKKQFLFVSLVY, the amyloid nucleation score was -0.744 ± 1.1.

IVHYVFFWMGGILGNHASFP had an amyloid nucleation score of -1.31 ± 1.1.

Consider WLYRQFDLSLESYNWMPGIE, for which the amyloid nucleation score worked out at 3.95 ± 0.12.

As for IFSTFCFLSAILFSIFPYEP, the amyloid nucleation score entry was “inactive”.

For MFNLSLNEFKPGLNRDCVQ, the amyloid nucleation score was -0.258 ± 0.56.

MPLLRVVMTLRHKSLFKAEM gave an amyloid nucleation score of -0.272 ± 0.44.

Take SNLSRDESRVGSTGEQGDGG: the amyloid nucleation score is -0.38 ± 0.55.

As to TTRRC, the amyloid nucleation score is -0.43 ± 0.32.

Substance NSRLLVDGHFIRTFRAFWVN yielded an amyloid nucleation score of -1.12 ± 0.56.

FENIDGWRLFIIARRRAIGG showed an amyloid nucleation score of -1 ± 1.

For VLEITLCG, the amyloid nucleation score was 0.834 ± 0.46.

Turning to EFKHSLIVASARRRNDFGYR, the amyloid nucleation score was 0.224 ± 0.43.

In turn, ISVHSQNTYVILELVRPSML registered an amyloid nucleation score of 8.388 ± 0.04.

For PSKPC, the amyloid nucleation score was -1.72 ± 0.75.

In turn, HNNFYPA came in with an amyloid nucleation score of -0.552 ± 0.35.

In turn, NRPMEGRLKWSMTVLIVSLY registered an amyloid nucleation score of -0.187 ± 0.65.

SLNPTRSWMRFNINKAHFLL: the amyloid nucleation score was -0.204 ± 0.48.

In the case of RYPLVKFQCYTGNYGKFGNL, the amyloid nucleation score worked out at 3.01 ± 0.071.

Regarding LRSYLNSHLLLEY, the amyloid nucleation score was -1.44 ± 0.62.

In the case of RNYRIETSSNVIKV, the amyloid nucleation score came to 0.292 ± 0.65.

The substance NDFTFLMFDM had an amyloid nucleation score of 1.25 ± 0.44.
